# Data as given in article PMC4400361, “Oligomerization of the Polycystin-2 C-terminal Tail and Effects on Its Ca^2+-binding Properties*” (The Journal of Biological Chemistry, 2015).
# B1: human polycystin-2 C-terminal construct, which includes the full-length cytoplasmic tail (HPC2 Cterm) (domain or fragment, UniProt Q13563 704-968, looked up)
# chain: IRKGYHKALVKLKLKKNTVDDISESLRQGGGKLNFDELRQDLKGKGHTDAEIEAIFTKYDQDGDQELTEHEHQQMRDDLEKEREDLDLDHSSLPRPMSSRSFPRSLDDSEEDDDEDSGHSSRRRGSISSGVSYEEFQVLVRRVDRMEHSIGSIVSKIDAVIVKLEIMERAKLKRREVLGRLLDGVAEDERLGRDSEIHREQMERLVREELERWESDDAASQISHGLGTPVGLNGQPRPRSSRPSSSQSTEGMEGAGGNGSSNVHV
# notes: polycystin-2 (PC2), human, residues I704-V968, numbered on full-length human PC2; Printed monomer mass 32.2 kDa; also called C-terminal cytoplasmic tail of human PC2; HPC Cterm
# How the values were obtained:
# [1] = target: the molecule itself; test: SEC-MALS; Superdex 200 10/30 GL, SEC-UV/LS/RI; Ca2+-free apo state, no added CaCl2, 1 mM EDTA; 20 mM imidazole in the buffer for HPC2 Cterm; three injected amounts
# [2] = target: the molecule itself; test: SEC-MALS; Superdex 200 10/30 GL, SEC-UV/LS/RI; Ca2+-bound holo state, 20 mM CaCl2 in the buffer; 20 mM imidazole in the buffer for HPC2 Cterm; three injected amounts for HPC2 Cterm and SUPC2 Ccore
protein,measurement,setting,value
B1,stoichiometry N,[1],3
same,stoichiometry N,[2],3
